In paper PMC2173431 (The Journal of Cell Biology, 2003):
Read-outs that look alike come from different tables or passages of the source.

Key:
GST-AIP [1] = molecular target: T1, GST-AIP (human, UniProt O00170 1-330); assay: pull-down
T1 sequence (looked up): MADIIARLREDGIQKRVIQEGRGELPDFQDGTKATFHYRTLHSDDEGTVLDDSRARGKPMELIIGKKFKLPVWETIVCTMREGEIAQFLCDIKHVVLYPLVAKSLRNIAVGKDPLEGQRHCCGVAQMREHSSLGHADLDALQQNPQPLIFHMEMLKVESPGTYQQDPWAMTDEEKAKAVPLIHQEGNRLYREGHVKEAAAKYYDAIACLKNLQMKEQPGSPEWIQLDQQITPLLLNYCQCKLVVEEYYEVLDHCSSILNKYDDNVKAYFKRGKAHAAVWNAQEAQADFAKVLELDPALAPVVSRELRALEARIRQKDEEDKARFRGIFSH

GST-AIP [2] = molecular target: T1, GST-AIP; assay: pull-down; remark: listed apart in the source

Row | Binder | binding result (GST-AIP [1]) | binding result (GST-AIP [2])
1 | QRIVSAQSLAEDDVE [Tom20C[131–145] peptide] | binds | –
2 | MBP-cT20 (domain or fragment, human, UniProt Q15388 25-145, looked up) DRKRRSDPNFKNRLRERRKKQKLAKERAGLSKLPDLKDAEAVQKFFLEEIQLGEELLAQGEYEKGVDHLTNAIAVCGQPQQLLQVLQQTLPPPVFQMLLTKLPTISQRIVSAQSLAEDDVE | – | binds
3 | MLFNLRILLNNAAFRNGHNFMVRNFRCGQPLQ [synthetic presequence peptide of human pOTC] | binds | –
